The data set “native gel or EMSA” deals with the molecule itself. Description: native gel or EMSA.
Data set [1] concerns the molecule itself. Kind of data set: cryo-EM 2D class averages.
The data set “cryo-EM structure” deals with the molecule itself. Kind of data set: cryo-EM structure.
The data set “SEC + native gel or EMSA” deals with the molecule itself. Kind of data set: SEC + native gel or EMSA. In general terms: A gel shift assay detects complexes by their altered migration in electrophoresis.

B1: PerM from Escherichia coli (natural protein, E. coli K-12, UniProt P0AFI9 1-353, looked up)
chain: MLEMLMQWYRRRFSDPEAIALLVILVAGFGIIFFFSGLLAPLLVAIVLAYLLEWPTVRLQSIGCSRRWATSIVLVVFVGILLLMAFVVLPIAWQQGIYLIRDMPGMLNKLSDFAATLPRRYPALMDAGIIDAMAENMRSRMLTMGDSVVKISLASLVGLLTIAVYLVLVPLMVFFLLKDKEQMLNAVRRVLPRNRGLAGQVWKEMNQQITNYIRGKVLEMIVVGIATWLGFLLFGLNYSLLLAVLVGFSVLIPYIGAFVVTIPVVGVALFQFGAGTEFWSCFAVYLIIQALDGNLLVPVLFSEAVNLHPLVIILSVVIFGGLWGFWGVFFAIPLATLIKAVIHAWPDGQIAQE
As a reminder, the stoichiometry N is a count of units in the complex or per binding partner. Take B1: in the data set “native gel or EMSA”, the “stoichiometry N” value turned out to be 2.

B2: YhhT from Escherichia coli (natural protein, E. coli K-12, UniProt P0AGM0 1-349, looked up)
chain: METPQPDKTGMHILLKLASLVVILAGIHAAADIIVQLLLALFFAIVLNPLVTWFIRRGVQRPVAITIVVVVMLIALTALVGVLAASFNEFISMLPKFNKELTRKLFKLQEMLPFLNLHMSPERMLQRMDSEKVVTFTTALMTGLSGAMASVLLLVMTVVFMLFEVRHVPYKMRFALNNPQIHIAGLHRALKGVSHYLALKTLLSLWTGVIVWLGLELMGVQFALMWAVLAFLLNYVPNIGAVISAVPPMIQVLLFNGVYECILVGALFLVVHMVIGNILEPRMMGHRLGMSTMVVFLSLLIWGWLLGPVGMLLSVPLTSVCKIWMETTKGGSKLAILLGPGRPKSRLPG
For the protein B2, in data set [1], the “stoichiometry N” value was determined as 5.

B3: TqsA (transporter of quorum-sensing signal AI-2) from Escherichia coli (natural protein, E. coli K-12, UniProt P0AFS5 1-344, looked up)
chain: MAKPIITLNGLKIVIMLGMLVIILCGIRFAAEIIVPFILALFIAVILNPLVQHMVRWRVPRVLAVSILMTIIVMAMVLLLAYLGSALNELTRTLPQYRNSIMTPLQALEPLLQRVGIDVSVDQLAHYIDPNAAMTLLTNLLTQLSNAMSSIFLLLLTVLFMLLEVPQLPGKFQQMMARPVEGMAAIQRAIDSVSHYLVLKTAISIITGLVAWAMLAALDVRFAFVWGLLAFALNYIPNIGSVLAAIPPIAQVLVFNGFYEALLVLAGYLLINLVFGNILEPRIMGRGLGLSTLVVFLSLIFWGWLLGPVGMLLSVPLTIIVKIALEQTAGGQSIAVLLSDLNKE
Regarding B3, the “stoichiometry N” value in the data set “cryo-EM structure” was found to be 5.

B4: TqsA E164Q (natural protein, E. coli K-12, UniProt P0AFS5 1-344, looked up)
chain: MAKPIITLNGLKIVIMLGMLVIILCGIRFAAEIIVPFILALFIAVILNPLVQHMVRWRVPRVLAVSILMTIIVMAMVLLLAYLGSALNELTRTLPQYRNSIMTPLQALEPLLQRVGIDVSVDQLAHYIDPNAAMTLLTNLLTQLSNAMSSIFLLLLTVLFMLLQVPQLPGKFQQMMARPVEGMAAIQRAIDSVSHYLVLKTAISIITGLVAWAMLAALDVRFAFVWGLLAFALNYIPNIGSVLAAIPPIAQVLVFNGFYEALLVLAGYLLINLVFGNILEPRIMGRGLGLSTLVVFLSLIFWGWLLGPVGMLLSVPLTIIVKIALEQTAGGQSIAVLLSDLNKE
As for B4, in “SEC + native gel or EMSA”, the “stoichiometry N” value came out at 5.

B5: TqsA P237A (natural protein, E. coli K-12, UniProt P0AFS5 1-344, looked up)
chain: MAKPIITLNGLKIVIMLGMLVIILCGIRFAAEIIVPFILALFIAVILNPLVQHMVRWRVPRVLAVSILMTIIVMAMVLLLAYLGSALNELTRTLPQYRNSIMTPLQALEPLLQRVGIDVSVDQLAHYIDPNAAMTLLTNLLTQLSNAMSSIFLLLLTVLFMLLEVPQLPGKFQQMMARPVEGMAAIQRAIDSVSHYLVLKTAISIITGLVAWAMLAALDVRFAFVWGLLAFALNYIANIGSVLAAIPPIAQVLVFNGFYEALLVLAGYLLINLVFGNILEPRIMGRGLGLSTLVVFLSLIFWGWLLGPVGMLLSVPLTIIVKIALEQTAGGQSIAVLLSDLNKE
Regarding B5, the “stoichiometry N” value in the data set “SEC + native gel or EMSA” was found to be 5.

B6: TqsA N238L (natural protein, E. coli K-12, UniProt P0AFS5 1-344, looked up)
chain: MAKPIITLNGLKIVIMLGMLVIILCGIRFAAEIIVPFILALFIAVILNPLVQHMVRWRVPRVLAVSILMTIIVMAMVLLLAYLGSALNELTRTLPQYRNSIMTPLQALEPLLQRVGIDVSVDQLAHYIDPNAAMTLLTNLLTQLSNAMSSIFLLLLTVLFMLLEVPQLPGKFQQMMARPVEGMAAIQRAIDSVSHYLVLKTAISIITGLVAWAMLAALDVRFAFVWGLLAFALNYIPLIGSVLAAIPPIAQVLVFNGFYEALLVLAGYLLINLVFGNILEPRIMGRGLGLSTLVVFLSLIFWGWLLGPVGMLLSVPLTIIVKIALEQTAGGQSIAVLLSDLNKE
As for B6, the “stoichiometry N” value in the data set “SEC + native gel or EMSA” is 5.

B7: TqsA E280Q (natural protein, E. coli K-12, UniProt P0AFS5 1-344, looked up)
chain: MAKPIITLNGLKIVIMLGMLVIILCGIRFAAEIIVPFILALFIAVILNPLVQHMVRWRVPRVLAVSILMTIIVMAMVLLLAYLGSALNELTRTLPQYRNSIMTPLQALEPLLQRVGIDVSVDQLAHYIDPNAAMTLLTNLLTQLSNAMSSIFLLLLTVLFMLLEVPQLPGKFQQMMARPVEGMAAIQRAIDSVSHYLVLKTAISIITGLVAWAMLAALDVRFAFVWGLLAFALNYIPNIGSVLAAIPPIAQVLVFNGFYEALLVLAGYLLINLVFGNILQPRIMGRGLGLSTLVVFLSLIFWGWLLGPVGMLLSVPLTIIVKIALEQTAGGQSIAVLLSDLNKE
Turning to B7, in “SEC + native gel or EMSA”, the “stoichiometry N” value is 5.

B8: TqsA K200L (natural protein, E. coli K-12, UniProt P0AFS5 1-344, looked up)
chain: MAKPIITLNGLKIVIMLGMLVIILCGIRFAAEIIVPFILALFIAVILNPLVQHMVRWRVPRVLAVSILMTIIVMAMVLLLAYLGSALNELTRTLPQYRNSIMTPLQALEPLLQRVGIDVSVDQLAHYIDPNAAMTLLTNLLTQLSNAMSSIFLLLLTVLFMLLEVPQLPGKFQQMMARPVEGMAAIQRAIDSVSHYLVLLTAISIITGLVAWAMLAALDVRFAFVWGLLAFALNYIPNIGSVLAAIPPIAQVLVFNGFYEALLVLAGYLLINLVFGNILEPRIMGRGLGLSTLVVFLSLIFWGWLLGPVGMLLSVPLTIIVKIALEQTAGGQSIAVLLSDLNKE
As for B8, the “stoichiometry N” value in the data set “SEC + native gel or EMSA” turned out to be 5.

B9: TqsA N234L (natural protein, E. coli K-12, UniProt P0AFS5 1-344, looked up)
chain: MAKPIITLNGLKIVIMLGMLVIILCGIRFAAEIIVPFILALFIAVILNPLVQHMVRWRVPRVLAVSILMTIIVMAMVLLLAYLGSALNELTRTLPQYRNSIMTPLQALEPLLQRVGIDVSVDQLAHYIDPNAAMTLLTNLLTQLSNAMSSIFLLLLTVLFMLLEVPQLPGKFQQMMARPVEGMAAIQRAIDSVSHYLVLKTAISIITGLVAWAMLAALDVRFAFVWGLLAFALLYIPNIGSVLAAIPPIAQVLVFNGFYEALLVLAGYLLINLVFGNILEPRIMGRGLGLSTLVVFLSLIFWGWLLGPVGMLLSVPLTIIVKIALEQTAGGQSIAVLLSDLNKE
Take B9: in the data set “SEC + native gel or EMSA”, the “stoichiometry N” value amounted to 5.

B10: TqsA R61L (natural protein, E. coli K-12, UniProt P0AFS5 1-344, looked up)
chain: MAKPIITLNGLKIVIMLGMLVIILCGIRFAAEIIVPFILALFIAVILNPLVQHMVRWRVPLVLAVSILMTIIVMAMVLLLAYLGSALNELTRTLPQYRNSIMTPLQALEPLLQRVGIDVSVDQLAHYIDPNAAMTLLTNLLTQLSNAMSSIFLLLLTVLFMLLEVPQLPGKFQQMMARPVEGMAAIQRAIDSVSHYLVLKTAISIITGLVAWAMLAALDVRFAFVWGLLAFALNYIPNIGSVLAAIPPIAQVLVFNGFYEALLVLAGYLLINLVFGNILEPRIMGRGLGLSTLVVFLSLIFWGWLLGPVGMLLSVPLTIIVKIALEQTAGGQSIAVLLSDLNKE
As to B10, the “stoichiometry N” value in the data set “SEC + native gel or EMSA” is 5.

B11: YdiK from Escherichia coli (natural protein, E. coli K-12, UniProt P0AFS7 1-370, looked up)
chain: MVNVRQPRDVAQILLSVLFLAIMIVACLWIVQPFILGFAWAGTVVIATWPVLLRLQKIMFGRRSLAVLVMTLLLVMVFIIPIALLVNSIVDGSGPLIKAISSGDMTLPDLAWLNTIPVIGAKLYAGWHNLLDMGGTAIMAKVRPYIGTTTTWFVGQAAHIGRFMVHCALMLLFSALLYWRGEQVAQGIRHFATRLAGVRGDAAVLLAAQAIRAVALGVVVTALVQAVLGGIGLAVSGVPYATLLTVLMILSCLVQLGPLPVLIPAIIWLYWTGDTTWGTVLLVWSGVVGTLDNVIRPMLIRMGADLPLILILSGVIGGLIAFGMIGLFIGPVLLAVSWRLFAAWVEEVPPPTDQPEEILEELGEIEKPNK
Consider B11, for which the “stoichiometry N” value in the data set “cryo-EM structure” amounted to 5.

The values are drawn from publication PMC9475539 (The EMBO Journal, 2022).
